# Source: article PMC11032457 (Proceedings of the National Academy of Sciences of the …, 2024)
# T1: TK0186 protein (Thermococcus kodakarensis, UniProt Q5JFM8)
# T1 sequence (Q5JFM8 1-417): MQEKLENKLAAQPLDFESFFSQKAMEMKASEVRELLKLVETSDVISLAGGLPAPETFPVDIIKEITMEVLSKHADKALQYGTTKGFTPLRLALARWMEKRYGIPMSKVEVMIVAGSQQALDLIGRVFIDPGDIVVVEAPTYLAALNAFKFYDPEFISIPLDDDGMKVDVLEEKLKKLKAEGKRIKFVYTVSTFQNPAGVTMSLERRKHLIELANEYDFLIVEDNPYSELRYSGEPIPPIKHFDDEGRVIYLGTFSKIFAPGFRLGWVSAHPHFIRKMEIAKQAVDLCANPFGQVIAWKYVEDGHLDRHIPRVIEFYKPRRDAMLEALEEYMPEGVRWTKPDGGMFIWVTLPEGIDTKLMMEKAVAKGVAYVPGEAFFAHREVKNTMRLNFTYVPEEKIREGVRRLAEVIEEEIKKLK
# T2: TK1094 protein (Thermococcus kodakarensis, UniProt Q5JE21)
# T2 sequence (Q5JE21 1-399): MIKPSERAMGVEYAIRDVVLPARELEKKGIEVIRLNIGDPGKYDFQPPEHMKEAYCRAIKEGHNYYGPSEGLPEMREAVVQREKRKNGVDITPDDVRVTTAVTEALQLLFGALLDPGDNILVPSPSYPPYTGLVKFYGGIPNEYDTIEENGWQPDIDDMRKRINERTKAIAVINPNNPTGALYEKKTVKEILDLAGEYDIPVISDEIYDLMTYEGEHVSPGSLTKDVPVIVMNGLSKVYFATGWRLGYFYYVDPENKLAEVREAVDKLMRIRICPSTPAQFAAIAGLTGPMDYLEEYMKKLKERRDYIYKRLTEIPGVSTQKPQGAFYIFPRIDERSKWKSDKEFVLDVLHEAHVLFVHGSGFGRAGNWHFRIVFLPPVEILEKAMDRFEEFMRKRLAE
# Columns and labels:
# [1] = molecular target: T1, TK0186 protein; assay: glycine formation, HPLC; assay type: biochemical; details: amino donor; 10 mM glyoxylate; 20 μM PLP; 50 mM HEPES pH 7.5; 80 °C
# [2] = molecular target: T2, TK1094 protein; assay: glycine formation, HPLC; assay type: biochemical; details: amino donor; 10 mM glyoxylate; 20 μM PLP; 50 mM HEPES pH 7.5; 80 °C
# [3] = substrate: O=C(COP(=O)(O)O)[C@H](O)[C@H](O)COP(=O)(O)O; assay: purified protein; details: 80 °C, 50 mM MES-NaOH pH 6.5, 10 mM MgCl2
# [4] = substrate: O=C[C@H](O)[C@H](O)COP(=O)(O)O; assay: purified protein; details: 80 °C, 50 mM MES-NaOH pH 6.5, 10 mM MgCl2
# [5] = substrate: O=C(CO)[C@H](O)[C@H](O)COP(=O)(O)O; assay: purified protein; details: 80 °C, 50 mM MES-NaOH pH 6.5, 10 mM MgCl2
# [6] = substrate: O=C(O)COP(=O)(O)O; assay: purified protein; details: 80 °C
# [7] = substrate: O=C(O)C(=O)CO; assay: purified protein; details: reduction, 0.3 mM NADH, 85 °C, 50 mM Tris pH 7.5
# [8] = substrate: O=CC(=O)O; assay: purified protein; details: reduction, 0.3 mM NADH, 85 °C, 50 mM Tris pH 7.5
# [9] = substrate: O=C(O)CO; assay: purified protein; details: oxidation, 10 mM NAD+, 80 °C, 50 mM Tris pH 7.5
# [10] = substrate: C[C@@H](O)C(=O)O; assay: purified protein; details: oxidation, 10 mM NAD+, 80 °C, 50 mM Tris pH 7.5
# [11] = substrate: CC(C)C(=O)C(=O)O; assay: purified protein; details: reduction, 0.3 mM NADH, 85 °C, 50 mM Tris pH 7.5
# [12] = substrate: CC(=O)C(=O)O; assay: purified protein; details: reduction, 0.3 mM NADH, 85 °C, 50 mM Tris pH 7.5
# [13] = substrate: CCCC(=O)C(=O)O; assay: purified protein; details: reduction, 0.3 mM NADH, 85 °C, 50 mM Tris pH 7.5
# [14] = substrate: CC[C@H](C)C(=O)C(=O)O; assay: purified protein; details: reduction, 0.3 mM NADH, 85 °C, 50 mM Tris pH 7.5
# [15] = 50 mM MES-NaOH pH 6.5, 10 mM MgCl2
# [16] = 50 mM MES-NaOH pH 7.0, 10 mM MgCl2
molecule,measurement,setting,value
C[C@H](N)C(=O)O [L-alanine],"glycine formation, HPLC",[1],the most preferred amino donor was L-alanine (Fig. 3E)
same,"glycine formation, HPLC",[2],"In the case of the TK1094 protein, activity was observed with L-alanine and L-glutamate"
TK2301 protein (Thermococcus kodakarensis KOD1) (protein) MTIKAISVDIDGTITYPDRRLHEKALEAIRLAESLGVPVMLVTGNTVQFGEAAAILIGTSGPVVGEDGGALSIKEGKLRKRVYLTNMDEEWILWGELKKRYPEALLSFSMPERKAGLVVLRTVPVKAVRELIKELGLNLIAVDSGFAIHIKKPWINKGTGIEKACEYLGISPKEVAHIGDGENDLDAFGVVGYRVAVAQAPESLKEKADYVTTKPYGEGGAEAIEHILRKFGYLPEEKT,Km,[3],238 ± 44 µM
same,kcat,[3],30.1 ± 1.3 s⁻¹
same,kcat/Km,[3],126000 M⁻¹ s⁻¹
same,Km,[4],1250 ± 280 µM
same,kcat,[4],17.1 ± 1 s⁻¹
same,kcat/Km,[4],13700 M⁻¹ s⁻¹
same,Km,[5],979 ± 157 µM
same,kcat,[5],16.3 ± 0.5 s⁻¹
same,kcat/Km,[5],16600 M⁻¹ s⁻¹
same,Km,[6]; [15],1220 ± 90 µM
same,kcat,[6]; [15],21.2 ± 0.4 s⁻¹
same,kcat/Km,[6]; [15],17400 M⁻¹ s⁻¹
TK1734 protein (2-PG phosphatase) (Thermococcus kodakarensis KOD1) (protein) MTRKIGIIFDMDGVIYRGSEPINGAKEVIEFLKERKIPFLFLTNNSTRDPAMYREKLLSMGIDVPEDVIVTSGLATRLYMEKHFEPGEVFVIGGKGLLREMERLGWGVVSLEDARKGAWKRIKHVVVGLDPELTYEKLKYGTLAIRNGASFIGTNPDTTYPAEEGLYPGAGAIIAALRASTDREPVIIGKPNEPAYEVVKDKLGDVEELWMVGDRLDTDIAFAKRFGMKAIMVLTGVSTLKDVAESGIKPNLVLPDVGELKRYLEAAL,Km,[6]; [16],1750 ± 220 µM
same,kcat,[6]; [16],65.6 ± 2.5 s⁻¹
same,kcat/Km,[6]; [16],37500 M⁻¹ s⁻¹
TK0683 protein (GLDH) (Thermococcus kodakarensis KOD1) (protein) MRPKVFITRAIPENGIEMLKEHFEVEVWPEEREIPREVLLKKVRDVDALVTMLSERIDSEVFDAAPRLRIVANYAVGYDNIDVEEATRRGIYVTNTPDVLTDATADFAWTLLLATARRLIEADHFTRSGEWKRRGIAWHPRWFLGYDVYGKTIGIVGFGRIGQAVARRARGFGMRILYYSRSRKPEAEKELGAEFRSLEDLLRESDFVVLAVPLTKETQYMINEERLRLMKKTAILVNIARGKVVDTKALMKALKEGWIAGAGLDVYEEEPYYNEELFSLKNVVLAPHIGSATYGAREGMAELVARNLIAFKNGEVPPTLVNKEVVKVRKPGF,Km,[7],310 ± 70 µM
same,kcat,[7],3130 ± 462 s⁻¹
same,kcat/Km,[7],1e+07 M⁻¹ s⁻¹
same,Km,[8],1490 ± 800 µM
same,kcat,[8],2030 ± 92 s⁻¹
same,kcat/Km,[8],1.36e+06 M⁻¹ s⁻¹
same,Km,[9],440 ± 60 µM
same,kcat,[9],0.213 ± 0.005 s⁻¹
same,kcat/Km,[9],490 M⁻¹ s⁻¹
same,Km,[10],440 ± 60 µM
same,kcat,[10],0.105 ± 0.003 s⁻¹
same,kcat/Km,[10],240 M⁻¹ s⁻¹
TK0551 protein (GLDH candidate) (Thermococcus kodakarensis KOD1) (protein) MRPRVLVTFKMKSKPVEELKKYADVDFLLYPSVEELAEKIKDYDGLIVSPLNRVPREVIERAERLKVISCHSAGYDHVDVEAATKKGIYVTKVSGVLSEAVAEFAVGLTIALLRKFVYTDKLIRRGEWDSHAKIWSTFKDIETVYGKKVGILGMGAIGKAIARRMKAMGTEILYWSRSRKEDIEAEVGAKYLPLDEVLRESDIVILALPATPETYHIINEERIKLLEGKYLVNIGRGTLVDEKAVVKAIEEGRLKGYATDVFEKEPVTEHPLFKYEWETVLTPHHAGLSKEAMEDMGFQAVMNLLAVLRGEIPKDLVNREVVKVRPPEEVKML,Km,[11],1900 ± 440 µM
same,kcat,[11],15.9 ± 2.2 s⁻¹
same,kcat/Km,[11],8370 M⁻¹ s⁻¹
same,Km,[12],6890 ± 810 µM
same,kcat,[12],12.4 ± 0.6 s⁻¹
same,kcat/Km,[12],1780 M⁻¹ s⁻¹
same,Km,[7],3730 ± 250 µM
same,kcat,[7],104 ± 3 s⁻¹
same,kcat/Km,[7],27900 M⁻¹ s⁻¹
same,Km,[13],1440 ± 90 µM
same,kcat,[13],14 ± 0.3 s⁻¹
same,kcat/Km,[13],9720 M⁻¹ s⁻¹
same,Km,[14],1930 ± 250 µM
same,kcat,[14],18.3 ± 2.2 s⁻¹
same,kcat/Km,[14],9480 M⁻¹ s⁻¹
same,Km,[8],2870 ± 390 µM
same,kcat,[8],186 ± 2 s⁻¹
same,kcat/Km,[8],64800 M⁻¹ s⁻¹
same,Km,[9],24100 ± 1260 µM
same,kcat,[9],0.376 ± 0.009 s⁻¹
same,kcat/Km,[9],15.6 M⁻¹ s⁻¹
same,Km,[10],9900 ± 1150 µM
same,kcat,[10],0.324 ± 0.013 s⁻¹
same,kcat/Km,[10],32.7 M⁻¹ s⁻¹
